# Assay results published in patent US20170129954A1 (PROTHENA BIOSCIENCES, published 2017).
# Changes are numbered by the printed parent chain. Names and notes keep the numbering of the source.
# T1: human MCAM domain 1 (amino acids 19-129) hFc (human, UniProt P43121 19-129)
# T1 construct: One of the various MCAMhFc domains captured on anti-human IgG Fc biosensors; also called MCAMhFc domain; not shown: human IgG Fc (hFc)
# T1 sequence: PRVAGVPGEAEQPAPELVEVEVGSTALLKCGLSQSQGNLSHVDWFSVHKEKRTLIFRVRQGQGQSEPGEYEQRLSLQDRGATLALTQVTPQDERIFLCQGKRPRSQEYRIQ
# T2: human MCAM domain 2 (amino acids 139-242) hFc (human, UniProt P43121 139-242)
# T2 construct: One of the various MCAMhFc domains captured on anti-human IgG Fc biosensors; also called MCAMhFc domain; not shown: human IgG Fc (hFc)
# T2 sequence: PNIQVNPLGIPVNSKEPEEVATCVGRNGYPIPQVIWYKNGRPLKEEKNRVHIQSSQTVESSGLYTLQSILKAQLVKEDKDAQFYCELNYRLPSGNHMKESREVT
# T3: combination of human MCAM domains 1 and 2 (amino acids 19-242) hFc (human, UniProt P43121 19-242)
# T3 construct: One of the various MCAMhFc domains captured on anti-human IgG Fc biosensors; also called combination of domains 1 and 2; MCAMhFc domain; not shown: human IgG Fc (hFc)
# T3 sequence: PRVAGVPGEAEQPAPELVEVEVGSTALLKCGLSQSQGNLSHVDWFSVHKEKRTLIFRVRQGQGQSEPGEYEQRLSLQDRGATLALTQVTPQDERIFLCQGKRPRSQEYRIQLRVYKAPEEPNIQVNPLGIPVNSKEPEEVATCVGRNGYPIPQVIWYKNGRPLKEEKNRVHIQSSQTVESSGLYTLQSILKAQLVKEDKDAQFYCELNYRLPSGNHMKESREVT
# T4: human MCAM (antigen of the BLI kinetics in Example 7) (human, UniProt P43121 24-559, limits assumed)
# T4 chain: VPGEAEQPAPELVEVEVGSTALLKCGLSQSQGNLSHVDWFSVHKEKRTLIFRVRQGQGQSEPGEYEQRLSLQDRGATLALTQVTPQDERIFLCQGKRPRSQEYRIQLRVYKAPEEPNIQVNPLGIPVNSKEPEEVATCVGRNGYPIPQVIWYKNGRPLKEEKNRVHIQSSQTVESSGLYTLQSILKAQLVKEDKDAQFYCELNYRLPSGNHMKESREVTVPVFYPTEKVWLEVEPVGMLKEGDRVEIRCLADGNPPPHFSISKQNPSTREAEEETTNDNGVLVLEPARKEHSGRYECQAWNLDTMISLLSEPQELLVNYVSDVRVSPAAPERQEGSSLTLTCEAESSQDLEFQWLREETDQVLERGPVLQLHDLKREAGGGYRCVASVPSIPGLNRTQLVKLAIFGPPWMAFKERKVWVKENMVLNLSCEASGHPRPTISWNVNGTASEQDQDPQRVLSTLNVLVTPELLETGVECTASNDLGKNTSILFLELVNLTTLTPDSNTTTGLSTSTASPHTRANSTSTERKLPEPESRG
# T5: human MCAM, full length, expressed on transfected cells (human, UniProt P43121 24-646)
# T5 construct: also called CD146; MUC18
# T5 chain: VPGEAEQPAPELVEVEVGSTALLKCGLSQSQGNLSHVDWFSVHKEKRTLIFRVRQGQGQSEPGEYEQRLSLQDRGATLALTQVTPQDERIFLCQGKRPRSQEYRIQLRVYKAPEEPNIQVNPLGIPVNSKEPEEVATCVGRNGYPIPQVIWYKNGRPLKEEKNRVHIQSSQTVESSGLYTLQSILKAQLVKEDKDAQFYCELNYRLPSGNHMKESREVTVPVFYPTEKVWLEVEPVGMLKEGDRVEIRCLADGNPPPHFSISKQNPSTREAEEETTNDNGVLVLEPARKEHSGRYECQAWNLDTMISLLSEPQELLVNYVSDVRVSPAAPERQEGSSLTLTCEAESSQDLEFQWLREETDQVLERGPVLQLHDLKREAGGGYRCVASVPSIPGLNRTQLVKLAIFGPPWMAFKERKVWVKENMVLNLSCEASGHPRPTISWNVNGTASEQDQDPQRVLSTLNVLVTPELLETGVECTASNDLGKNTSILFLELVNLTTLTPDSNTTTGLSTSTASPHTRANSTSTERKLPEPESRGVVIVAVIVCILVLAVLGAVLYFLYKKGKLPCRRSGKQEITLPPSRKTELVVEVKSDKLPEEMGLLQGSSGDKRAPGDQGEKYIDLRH
# B1: rat anti-human MCAM monoclonal antibody clone 2107.4.10 (antibody, V domains shown)
# VH: QVQLKESGPGLVQSSQTLSLTCTVSGFSLTSNGVSWVRQPPGKGLEWIAAISSGGSTYYNSAFKSRLSISRNTSKSQVLLKMNSLQTEDTGMYFCARHRPFYFDYWGQGVMVTVSS
# VL: DIQVTQSPSLLSASVGDRVTLNCKGSQNIYKSLAWFRLKRGEAPKLLIYDANSLQTGIPSRFSGSGSGTDFTLTITSLQPEDVATYFCQQYYSGYTFGAGTKLELK
# notes: Rat hybridoma monoclonal antibody
# B2: mouse anti-human MCAM monoclonal antibody clone 1414.1.2 (antibody, V domains shown)
# VH: EIQLQQTGPELVKPGASVKISCKASGYSFTDYIMLWVKQSHGKSLEWIGNINPYSGSSGYNLKFKGKATLTVDKSSSTAYMQLNSLTSEDSAVYYCARGKDFAMDYWGQGTSVTVSS
# VL: DIVMSQSPSSLAVSAGEKVTMSCKSSQSLLNSSTRKNFLAWYQQKPGQSPKLLIYWASTRESGVPDRFTGSGSGTDFTLTISSVQAEDLAVYYCKQSYNRYTFGGGTKLEIK
# notes: Mouse hybridoma monoclonal antibody
# B3: mouse anti-human MCAM monoclonal antibody clone 1415.1.1 (antibody, V domains shown)
# VH: QVQLQQPGAELVQPGAPVKLSCKASGYIFTSYWMNWVKQRPGRGLEWIGRIDPSDSKIHYNQKFKDKATLTVDRSSSTAYIQLGSLTSEDSAVYYCAKEGGLRRGDYAMDYWGQGTSVTVSS
# VL: DIVMTQSPATLSVTPGDRVSLSCRASQSISDYLHWYQQKSHESPRLLIKYASQSISGIPSRFSGSGSGSDFTLSINSVEPEDVGVYYCQNGHNFPRTFGGGTKLEIK
# notes: as for B2
# B4: rat anti-human MCAM monoclonal antibody clone 2120.4.19 (antibody, V domains shown)
# VH: QVQLKESGPGLVQPSQTLSLTCTVSGFSLTSNGVSWVRQPPGKGLEWIAAISSGGTTYYNSAFKSRLSISRNTSKSQVLLKMNSLQTEDTAMYFCARRYGYGWYFDFWGPGTMVTVSS
# VL: DIRMTQSPSLLSASVGDRVTLNCKASQNIYNSLAWYQQKLGEGPKVLIFNANSLQTGIPSRFSGSGSGTDFTLTISSLQPEDFATYFCQQFYSGYTFGAGTKLELK
# notes: as for B1
# B5: mouse anti-human MCAM monoclonal antibody clone 1174.1.3 (antibody, V domains shown)
# VH: QIQLVQSGPELKKPGETVKISCKASGYTFTNYGMNWVKQAPGKGLKWMGWINTYTGEPTYADDFKGRFALSLETSASTAYLQINNLKNEDMATYFCARYRYNKYERAMDYWGQGTSVTVSS
# VL: DIVLTQSPASLAVSLGQRATISCRASKSVSTSGYSYMYWYQQKPGQPPKLLIYLASNLESGVPARFSGSGSGTDFTLNIHPVEEEDAATYYCQHSRELPFTFGSGTKLEIK
# notes: as for B2
# B6: human MCAM I141A single mutant displayed on mammalian cells (receptor)
# chain: T5 chain with I118A
# B7: human MCAM D216A single mutant displayed on mammalian cells (receptor)
# chain: T5 chain with D193A
# B8: Chimeric 1749 (antibody, V domains shown)
# VH: DVKLVESGGDLVKPGGSLKLSCAASGFTFSSYIMSWVRQTPEKRLEWVATISSGGSSTYYPDSVKGRFTISRDNAKNTLYLQMSSLKSEDTAMYYCTRDDDYDVKVFAYWGQGTLVTVSA
# VL: B2 VL with S22N, Q27R, S33R, T34I, F38Y, R100L, Y101L, G105A, I111L
# notes: also called ch1749
# B9: Human 1749VH3VL3 (Hu1749VHv3 and Hu1749VLv3) (antibody, V domains shown)
# VH: B8 VH with D1E, D10G, K13Q, K19R, A120S
# VL: DIVMTQSPSSLAVSLGERVTINCKSSRSLLNSRIRKNYLAWYQQKPGQSPKLLIYWASTRESGVPDRFSGSGSGTDFTLTISSLQAEDVAVYYCKQSYNLLTFGQGTKVEIKR
# notes: also called hu1749VH3VL3; hu1749H3L3
# Molecular target: T1, human MCAM domain 1 (amino acids …)
# Experiment: ForteBio BLI, MCAMhFc domains on anti-human IgG Fc biosensors
# Source text: (§1) The following protocol was used: ForteBio anti-human IgG Fc biosensors were used to immobilize various MCAMhFc domains including full length MCAMhFc protein on to biosensor surface. […] After loading these samples into a black 96 well plate, the Octet Red was programmed as follows: 60 seconds for baseline #1; 180 seconds for loading various domains; 60 seconds for baseline #2; 180 seconds for association of antibody to domain; and 240 seconds for dissociation of antibody from domain.
# (§2) 1. MCAMhFc final concentration @ 5 ug/ml [0329] […] 3. ForteBio anti-human IgG Fc Capture (AHC) biosensors for kinetics experiments, cat #18-5060 [0331] 4. Block 96 well plate from Greiner Bio-one, cat #655209 [0332] 5. ForteBio Octet Red machine [0333] 6. Fresh tissue culture medium, DMEM with 20% FCS, was used as buffer for dilution The results from these analyses are as follows.
row,binding result,Binder
1,no binding (tested: 5 ug/ml),B1
2,no binding (tested: 5 ug/ml),B2
3,no binding (tested: 5 ug/ml),B3
4,no binding (tested: 5 ug/ml),B4
5,no binding (tested: 5 ug/ml),B5

# Molecular target: T2, human MCAM domain 2 (amino acids …)
# Experiment: as above
# Source text: as §1, §2
row,binding result,Binder
1,no binding (tested: 5 ug/ml),B2
2,no binding (tested: 5 ug/ml),B3
3,no binding (tested: 5 ug/ml),B5

# Molecular target: T3, combination of human MCAM domains 1 and …
# Experiment: as above
# Source text: as §1, §2
row,binding result,Binder
1,no binding (tested: 5 ug/ml),B2
2,no binding (tested: 5 ug/ml),B3
3,no binding (tested: 5 ug/ml),B5

# Molecular target: laminin α-4 (UniProt Q16363 25-1823)
# Sequence (Q16363 25-1823): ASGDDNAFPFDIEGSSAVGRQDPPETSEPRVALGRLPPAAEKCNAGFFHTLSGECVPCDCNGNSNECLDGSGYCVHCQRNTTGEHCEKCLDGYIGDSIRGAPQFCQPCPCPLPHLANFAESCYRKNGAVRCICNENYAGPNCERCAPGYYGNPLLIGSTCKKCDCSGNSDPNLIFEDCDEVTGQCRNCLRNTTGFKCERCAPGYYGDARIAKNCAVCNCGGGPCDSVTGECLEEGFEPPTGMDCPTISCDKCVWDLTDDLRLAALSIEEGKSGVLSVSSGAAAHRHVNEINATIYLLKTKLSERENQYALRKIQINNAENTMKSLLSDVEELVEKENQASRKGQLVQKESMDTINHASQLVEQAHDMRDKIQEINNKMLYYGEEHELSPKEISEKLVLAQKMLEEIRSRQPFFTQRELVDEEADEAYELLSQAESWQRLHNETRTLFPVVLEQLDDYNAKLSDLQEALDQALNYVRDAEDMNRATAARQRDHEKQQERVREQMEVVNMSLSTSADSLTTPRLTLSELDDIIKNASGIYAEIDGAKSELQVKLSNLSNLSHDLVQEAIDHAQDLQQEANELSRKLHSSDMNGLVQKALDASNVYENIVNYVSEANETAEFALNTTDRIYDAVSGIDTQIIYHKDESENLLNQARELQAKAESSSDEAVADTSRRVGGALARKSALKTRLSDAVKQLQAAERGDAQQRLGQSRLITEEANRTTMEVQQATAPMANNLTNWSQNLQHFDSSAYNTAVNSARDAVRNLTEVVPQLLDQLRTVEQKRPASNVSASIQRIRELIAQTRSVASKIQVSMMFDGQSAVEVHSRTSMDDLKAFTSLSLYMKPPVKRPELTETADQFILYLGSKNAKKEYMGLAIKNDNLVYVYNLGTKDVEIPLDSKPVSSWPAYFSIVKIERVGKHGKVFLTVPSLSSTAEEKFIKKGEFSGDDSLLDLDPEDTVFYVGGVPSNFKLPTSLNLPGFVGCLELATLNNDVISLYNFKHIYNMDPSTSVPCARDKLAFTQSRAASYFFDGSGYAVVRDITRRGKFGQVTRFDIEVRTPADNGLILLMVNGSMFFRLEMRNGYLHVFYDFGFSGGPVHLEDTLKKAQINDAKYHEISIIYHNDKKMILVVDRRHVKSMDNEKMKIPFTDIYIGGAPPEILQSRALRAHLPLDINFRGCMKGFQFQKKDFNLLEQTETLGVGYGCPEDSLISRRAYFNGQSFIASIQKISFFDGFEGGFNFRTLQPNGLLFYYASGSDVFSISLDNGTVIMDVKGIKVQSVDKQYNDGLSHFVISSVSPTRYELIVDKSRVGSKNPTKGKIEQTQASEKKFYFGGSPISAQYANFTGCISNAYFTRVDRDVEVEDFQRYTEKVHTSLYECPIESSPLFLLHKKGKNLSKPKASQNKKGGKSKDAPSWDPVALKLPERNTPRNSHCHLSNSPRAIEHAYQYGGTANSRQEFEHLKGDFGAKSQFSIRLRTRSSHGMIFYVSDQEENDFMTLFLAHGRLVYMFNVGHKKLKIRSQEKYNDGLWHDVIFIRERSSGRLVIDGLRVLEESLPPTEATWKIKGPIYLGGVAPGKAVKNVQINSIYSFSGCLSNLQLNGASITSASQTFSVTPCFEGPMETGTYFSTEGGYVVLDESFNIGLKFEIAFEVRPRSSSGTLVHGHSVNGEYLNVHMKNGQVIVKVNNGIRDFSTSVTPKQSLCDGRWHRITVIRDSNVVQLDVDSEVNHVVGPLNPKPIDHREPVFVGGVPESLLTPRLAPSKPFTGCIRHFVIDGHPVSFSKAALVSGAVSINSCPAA
# Experiment: FACS on mammalian cells displaying the mutant
# Source text: Twenty point mutants based on the structure information and shotgun mutagenesis information were designed and generated.
row,binding result,Binder
1,no binding,B6
2,no binding,B7

# Molecular target: T4, human MCAM (antigen of the BLI kinetics …)
# Experiment: BLI, ForteBio Octet QK, apparent KD
# Source text: (§3) Apparent ka, apparent kd and apparent KD are binding kinetic parameters obtained using ForteBio assay formats.
row,Kd [nM],Binder
1,0.226,B8
2,0.221,B9

# Molecular target: T5, human MCAM, full length, expressed on …
# Experiment: flow cytometry, blocking of recombinant human laminin 411 (20 ug/ml) binding to CHO cells expressing human MCAM
# Description: The 87 independent mouse fusion clones and 26 independent rat fusion clones described in Example 1 above as being capable of (i) binding to human MCAM, and (ii) blocking the interaction between human MCAM and the α-4 chain of laminin were further characterized as follows. First, IC50 quantitation for the ability of the monoclonal antibody to block the binding of human MCAM to the α-4 chain of laminin was determined as follows. CHO cells expressing human MCAM were incubated with an anti-human MCAM antibody (at various concentrations) for 30 minutes at 4 degrees Celsius. […] Unbound laminin was then washed away, and the laminin bound to the surface of the cells was detected with fluorescently labeled anti-laminin antibodies. After washing, the amount of laminin bound to the surface was detected by flow cytometry, and IC50s were calculated based on the mean fluorescent intensity.
# Amino acid and nucleic acid sequences of the heavy and light chains of these antibodies, and their hypervariable regions, are provided in SEQ ID NOs:29-92. […] As such, each of these specific monoclonal antibodies was very capable of binding to human MCAM and inhibiting the interaction of cell-expressed human MCAM with its α-4 laminin binding ligand.
row,IC50 [µg/mL],Binder
1,0.29,B1
2,0.431,B2
3,0.307,B3
4,0.888,B4
5,0.469,B5

# Molecular target: T4, human MCAM (antigen of the BLI kinetics …)
# Experiment: BLI, ForteBio Octet QK, apparent ka
# Source text: as §3
row,kon [M⁻¹ s⁻¹],Binder
1,1.94e+06,B8
2,1.99e+06,B9

# Molecular target: T4, human MCAM (antigen of the BLI kinetics …)
# Experiment: BLI, ForteBio Octet QK, apparent kd
# Source text: as §3
row,koff [s⁻¹],Binder
1,0.000439,B8
2,0.00044,B9
